Test results reported in patent US20130236458A1 (AbbVie / Abbott, published 2013).

B1: DVD2177 (bispecific antibody)
VH: EVQLVQSGAEVKKPGSSVKVSCKASGGSFGGYGIGWVRQAPGQGLEWMGGITPFFGFADYAQKFQGRVTITADESTTTAYMELSGLTSDDTAVYYCARDPNEFWNGYYSTHDFDSWGQGTTVTVSSASTKGPSVFPLAPEVQLVQSGAEVKKPGASVKVSCKASGYTFTTYGVSWVRQAPGQGLEWMGEIYPGNYNTYYNEKFRGRVTMTTDTSTSTAYMELRSLRSDDTAVYYCARWRTSYFSDYGYFDYWGQGTTVTVSS
VL: EIVLTQSPDFQSVTPKEKVTITCRASQDIGSELHWYQQKPDQPPKLLIKYASHSTSGVPSRFSGSGSGTDFTLTINGLEAEDAGTYYCHQTDSLPYTFGPGTKVDIKRTVAAPDVVMTQSPLSLPVTLGQPASISCRSSQSLVHSHGNTYLHWYQQRPGQSPRLLIYTVSNRFSGVPDRFSGSGSGTDFTLKISRVEAEDVGVYYCSQSTHVPYTFGGGTKVEIKR
notes: DVD-Ig; also called DVD2177H; DVD2177L
B2: DVD2179 (bispecific antibody)
VH: EVQLVQSGAEVKKPGESVKISCKASGGSFRSYGISWVRQAPGQGLEWMGGITHFFGITDYAQKFQGRVTITADESTTTAYMELSGLTSDDTAVYYCAREPNDFWNGYYDTHDFDSWGQGTTVTVSSASTKGPEVQLVQSGAEVKKPGASVKVSCKASGYTFTTYGVSWVRQAPGQGLEWMGEIYPGNYNTYYNEKFRGRVTMTTDTSTSTAYMELRSLRSDDTAVYYCARWRTSYFSDYGYFDYWGQGTTVTVSS
VL: EIVLTQSPDFQSVTPKEKVTITCRASQNIGSELHWYQQKPDQSPKLLIKYASHSISGVPSRFSGSGSGTDFTLTINGLEAEDAATYYCHQSDTLPHTFGQGTKVDIKRTVAAPDVVMTQSPLSLPVTLGQPASISCRSSQSLVHSHGNTYLHWYQQRPGQSPRLLIYTVSNRFSGVPDRFSGSGSGTDFTLKISRVEAEDVGVYYCSQSTHVPYTFGGGTKVEIKR
notes: DVD-Ig; also called DVD2179H; DVD2179L
B3: DVD2181 (bispecific antibody)
VH: EVQLVQSGAEVKKPGESVKISCKASGGSFRSYGISWVRQAPGQGLEWMGGITHFFGITDYAQKFQGRVTITADESTTTAYMELSGLTSDDTAVYYCAREPNDFWNGYYDTHDFDSWGQGTTVTVSSASTKGPEVQLVQSGAEVKKPGASVKVSCKASGYTFTTYGVSWVRQAPGQGLEWMGEIYPGNYNTYYNEKFRGRVTMTTDTSTSTAYMELRSLRSDDTAVYYCARWRTSYFSDYGYFDYWGQGTTVTVSS
VL: EIVLTQSPDFQSVTPKEKVTITCRASQNIGSELHWYQQKPDQSPKLLIKYASHSISGVPSRFSGSGSGTDFTLTINGLEAEDAATYYCHQSDTLPHTFGQGTKVDIKRTVAAPSVFIFPPDVVMTQSPLSLPVTLGQPASISCRSSQSLVHSHGNTYLHWYQQRPGQSPRLLIYTVSNRFSGVPDRFSGSGSGTDFTLKISRVEAEDVGVYYCSQSTHVPYTFGGGTKVEIKR
notes: DVD-Ig; also called DVD2181H; DVD2181L
B4: DVD2183 (bispecific antibody)
VH: EVQLVQSGAEVKKPGESVKISCKASGGSFRSYGISWVRQAPGQGLEWMGGITHFFGITDYAQKFQGRVTITADESTTTAYMELSGLTSDDTAVYYCAREPNDFWNGYYDTHDFDSWGQGTTVTVSSASTKGPSVFPLAPEVQLVQSGAEVKKPGASVKVSCKASGYTFTTYGVSWVRQAPGQGLEWMGEIYPGNYNTYYNEKFRGRVTMTTDTSTSTAYMELRSLRSDDTAVYYCARWRTSYFSDYGYFDYWGQGTTVTVSS
VL: EIVLTQSPDFQSVTPKEKVTITCRASQNIGSELHWYQQKPDQSPKLLIKYASHSISGVPSRFSGSGSGTDFTLTINGLEAEDAATYYCHQSDTLPHTFGQGTKVDIKRTVAAPDVVMTQSPLSLPVTLGQPASISCRSSQSLVHSHGNTYLHWYQQRPGQSPRLLIYTVSNRFSGVPDRFSGSGSGTDFTLKISRVEAEDVGVYYCSQSTHVPYTFGGGTKVEIKR
notes: DVD-Ig; also called DVD2183H; DVD2183L
B5: DVD2185 (bispecific antibody)
VH: EVQLVQSGAEVKKPGSSVKVSCKASGYTFTDYEIHWVRQAPGQGLEWMGVNDPESGGTFYNQKFDGRVTLTADESTSTAYMELSSLRSEDTAVYYCTRYSKWDSFDGMDYWGQGTTVTVSSASTKGPEVQLVQSGAEVKKPGASVKVSCKASGYTFTSYWMHWVRQAPGQGLEWIGNINPKGGSNIYNEKFQGRVTMTRDTSISTAYMELSRLRSDDTAVYYCARLDYFGDSFDLWGQGTTVTVSS
VL: DIQMTQSPSSLSASVGDRVTITCRASSGIISYIDWFQQKPGKAPKRLIYATFDLASGVPSRFSGSGSGTDYTLTISSLQPEDFATYYCRQVGSYPETFGQGTKLEIKRTVAAPDIQMTQSPSSLSASVGDRVTITCRASQGIRNYLNWYQQKPGKAPKLLIYYASNLEVGVPSRFSGSGSGTDYTLTISSLQPEDFATYYCQQDNRFPYTFGGGTKVEIKR
notes: DVD-Ig; also called DVD2185H; DVD2185L
B6: DVD2187 (bispecific antibody)
VH: EVQLVQSGAEVKKPGSSVKVSCKASGYTFTDYEIHWVRQAPGQGLEWMGVNDPESGGTFYNQKFDGRVTLTADESTSTAYMELSSLRSEDTAVYYCTRYSKWDSFDGMDYWGQGTTVTVSSASTKGPEVQLVQSGAEVKKPGASVKVSCKASGYTFTSYWMHWVRQAPGQGLEWIGNINPKGGSNIYNEKFQGRVTMTRDTSISTAYMELSRLRSDDTAVYYCARLDYFGDSFDLWGQGTTVTVSS
VL: DIQMTQSPSSLSASVGDRVTITCRASSGIISYIDWFQQKPGKAPKRLIYATFDLASGVPSRFSGSGSGTDYTLTISSLQPEDFATYYCRQVGSYPETFGQGTKLEIKRTVAAPSVFIFPPDIQMTQSPSSLSASVGDRVTITCRASQGIRNYLNWYQQKPGKAPKLLIYYASNLEVGVPSRFSGSGSGTDYTLTISSLQPEDFATYYCQQDNRFPYTFGGGTKVEIKR
notes: DVD-Ig; also called DVD2187H; DVD2187L
B7: DVD2189 (bispecific antibody)
VH: EVQLVQSGAEVKKPGSSVKVSCKASGYTFTDYEIHWVRQAPGQGLEWMGVNDPESGGTFYNQKFDGRVTLTADESTSTAYMELSSLRSEDTAVYYCTRYSKWDSFDGMDYWGQGTTVTVSSASTKGPSVFPLAPEVQLVQSGAEVKKPGASVKVSCKASGYTFTSYWMHWVRQAPGQGLEWIGNINPKGGSNIYNEKFQGRVTMTRDTSISTAYMELSRLRSDDTAVYYCARLDYFGDSFDLWGQGTTVTVSS
VL: DIQMTQSPSSLSASVGDRVTITCRASSGIISYIDWFQQKPGKAPKRLIYATFDLASGVPSRFSGSGSGTDYTLTISSLQPEDFATYYCRQVGSYPETFGQGTKLEIKRTVAAPDIQMTQSPSSLSASVGDRVTITCRASQGIRNYLNWYQQKPGKAPKLLIYYASNLEVGVPSRFSGSGSGTDYTLTISSLQPEDFATYYCQQDNRFPYTFGGGTKVEIKR
notes: DVD-Ig; also called DVD2189H; DVD2189L
B8: DVD2190 (bispecific antibody)
VH: EVQLVQSGAEVKKPGASVKVSCKASGYTFTSYWMHWVRQAPGQGLEWIGNINPKGGSNIYNEKFQGRVTMTRDTSISTAYMELSRLRSDDTAVYYCARLDYFGDSFDLWGQGTTVTVSSASTKGPEVQLVQSGAEVKKPGSSVKVSCKASGGSFGGYGIGWVRQAPGQGLEWMGGITPFFGFADYAQKFQGRVTITADESTTTAYMELSGLTSDDTAVYYCARDPNEFWNGYYSTHDFDSWGQGTTVTVSS
VL: DIQMTQSPSSLSASVGDRVTITCRASQGIRNYLNWYQQKPGKAPKLLIYYASNLEVGVPSRFSGSGSGTDYTLTISSLQPEDFATYYCQQDNRFPYTFGGGTKVEIKRTVAAPEIVLTQSPDFQSVTPKEKVTITCRASQDIGSELHWYQQKPDQPPKLLIKYASHSTSGVPSRFSGSGSGTDFTLTINGLEAEDAGTYYCHQTDSLPYTFGPGTKVDIKR
notes: DVD-Ig; also called DVD2190H; DVD2190L
B9: DVD2191 (bispecific antibody)
VH: EVQLVQSGAEVKKPGSSVKVSCKASGGSFGGYGIGWVRQAPGQGLEWMGGITPFFGFADYAQKFQGRVTITADESTTTAYMELSGLTSDDTAVYYCARDPNEFWNGYYSTHDFDSWGQGTTVTVSSASTKGPEVQLVQSGAEVKKPGASVKVSCKASGYTFTSYWMHWVRQAPGQGLEWIGNINPKGGSNIYNEKFQGRVTMTRDTSISTAYMELSRLRSDDTAVYYCARLDYFGDSFDLWGQGTTVTVSS
VL: EIVLTQSPDFQSVTPKEKVTITCRASQDIGSELHWYQQKPDQPPKLLIKYASHSTSGVPSRFSGSGSGTDFTLTINGLEAEDAGTYYCHQTDSLPYTFGPGTKVDIKRTVAAPDIQMTQSPSSLSASVGDRVTITCRASQGIRNYLNWYQQKPGKAPKLLIYYASNLEVGVPSRFSGSGSGTDYTLTISSLQPEDFATYYCQQDNRFPYTFGGGTKVEIKR
notes: DVD-Ig; also called DVD2191H; DVD2191L

Assays:
Recombinant Human IL-17 [1] = target: T1, Recombinant Human IL-17 (human, UniProt Q16552 20-155, limits assumed); test: cell-based or functional assay
T1 sequence (looked up): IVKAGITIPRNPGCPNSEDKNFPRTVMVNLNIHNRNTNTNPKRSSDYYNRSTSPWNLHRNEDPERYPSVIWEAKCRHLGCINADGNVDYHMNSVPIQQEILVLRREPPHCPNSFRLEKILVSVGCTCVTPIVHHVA

Recombinant Human IL-13 [2] = target: T2, Recombinant Human IL-13 (human, UniProt P35225 35-146, limits assumed); test: cell-based or functional assay
Recombinant Human IL-17 [3] = target: T1, Recombinant Human IL-17; test: SPR (Biacore)
How it was run: (§1)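 Antibodies or DVD-Ig captured on anti-mouse IgG (Fcγ) CM5 surface; antigen injected at 10–200 nM in HBS-EP, pH 7.4, 25 °C, 25 µL/min. kon and koff from global 1:1 Langmuir fit; KD = koff/kon.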

Recombinant Human IL-13 [4] = target: T2, Recombinant Human IL-13; test: SPR (Biacore)
How it was run: as §1

T2 sequence (P35225 35-146 limits assumed): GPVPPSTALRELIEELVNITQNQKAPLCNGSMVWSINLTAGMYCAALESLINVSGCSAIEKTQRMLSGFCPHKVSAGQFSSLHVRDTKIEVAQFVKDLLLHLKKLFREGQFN

| Binder | N-Terminal VD IL17 Neutralization Assay IC50 (Recombinant Human IL-17 [1]) [nM] | C-Terminal VD IL13 Neutralization Assay IC50 (Recombinant Human IL-13 [2]) [nM] | Kd (Recombinant Human IL-17 [3]) [nM] | koff (Recombinant Human IL-17 [3]) [s⁻¹] | kon (Recombinant Human IL-17 [3]) [M⁻¹ s⁻¹] | Kd (Recombinant Human IL-13 [4]) [nM] | koff (Recombinant Human IL-13 [4]) [s⁻¹] | kon (Recombinant Human IL-13 [4]) [M⁻¹ s⁻¹] | C-Terminal VD IL17 Neutralization Assay IC50 (Recombinant Human IL-17 [1]) [nM] | N-Terminal VD IL13 Neutralization Assay IC50 (Recombinant Human IL-13 [2]) [nM] |
| --- | --- | --- | --- | --- | --- | --- | --- | --- | --- | --- |
| B1 | 0.0101 | 0.155 | ≤ 0.0043 | ≤ 1e-05 | 2.5e+06 | < 0.0091 | < 1e-06 | 110000 | – | – |
| B2 | 0.0097 | 0.916 | 0.039 | 6.4e-05 | 1.7e+06 | ≤ 0.0036 | ≤ 1e-06 | 280000 | – | – |
| B3 | 0.0097 | 0.04 | 0.016 | 4.2e-05 | 2.6e+06 | < 0.012 | < 1e-06 | 82000 | – | – |
| B4 | 0.0125 | 0.086 | 0.015 | 3.6e-05 | 2.3e+06 | < 0.0042 | < 1e-06 | 240000 | – | – |
| B5 | 0.0013 | 1.25 | 0.0089 | 1.5e-05 | 1.7e+06 | < 0.0091 | < 1e-06 | 110000 | – | – |
| B6 | 0.0016 | 0.811 | < 0.00038 | < 1e-06 | 2.6e+06 | 0.072 | 2.1e-05 | 290000 | – | – |
| B7 | 0.0017 | 0.172 | < 0.0004 | < 1e-06 | 2.5e+06 | 0.094 | 3.9e-05 | 410000 | – | – |
| B8 | – | – | 0.038 | 3.4e-06 | 89000 | 0.021 | 5.7e-05 | 2.6e+06 | 0.061 | 0.087 |
| B9 | 0.013 | 0.165 | 0.0046 | 1.2e-05 | 2.5e+06 | 0.17 | 4.4e-05 | 260000 | – | – |
